According to a protein production outcome set (Wang et al. 2014):

Assay: label from the status in PepcDB records

| Sequence | protein production |
| --- | --- |
| MKLPPGFSISVWANVPDARTMTLGDKGTVFVGSKSAGNVYAITENAGKRQIRIIASKLKMPNGVAFHDGALYVSSVNRILRFDNIENTLDQPLPPRIITADYPKETYHGWRFIAFGPDGWLYVPVGSSCNVCETDLEHYALISRIRPDGSNYEVFAKGVRNTEGFDWHPVTKALWFTDISREWMGDNLPPDELNHASNQGLDFGFPYCHGKEVSDPKLGAKRDCNKFIPPAVELDPHVAPMGMRFYTGTMFPAEYHNGIFIAEHGSWNRSTKIGYRLEWVQLEVNEVARKEIFAEGWLQENEAWGRPVDVLVMPDGALLVSDDMAGVVYRISYDQPLEHHHHHH | not failed |
| MKLQLYVLRTVATRILGAALILMSVLQILDLLDVTSDILDRGLGMAGVGYYAALRLPRLFEQVAPIAVLAGGLFAFSQLARESAIVAMRASGISGYRIVGMAVPAAVAVMLLDALCGQVLAPRADPTLADWWRNTTPVAERKEPVPRTFRAGADLVIGANASADGRTITGVTIFRRDSKGILVEKVEAPAARYDGKAWTLEQPKTTRFAGDLSQASTAAATSWPTALRPQDVQGLFGDDSMPTAASARRALENGGSDRPESFYATHLQAAFASPFVSLVMLLLSAPVALANFRSGQGAVLLTGGLAAGLMFLVANGMLTALGESGALTPFLAVWAAPAIFGALAVRTFLALEG | failed |
| MKLQVLPLSQEAFSAYGDVIETQQRDFFHINNGLVERYHDLALVEILEQDRTLISINRAQPANLPLTIHELERHPLGTQAFIPMKGEVFVVVVALGDDKPDLSTLRAFITNGEQGVNYHRNVWHHPLFAWQRVTDFLTIDRGGSDNCDVESIPEQELCFA | not failed |
| MKLRLRHHETRETLKLELADADTLHDLRRRINPTVPSSVHLSLNRKDELITPSPEDTLRSLGLISGDLIYFSLEAGESSNWKLRDSETVASQSESNQTSVHDSIGFAEVDVVPDQAKSNPNTSVEDPEGDISGMEGPEPMDVEQLDMELAAAGSKRLSEPFFLKNILLEKSGDTSELTTLALSVHAVMLESGFVLLNHGSDKFNFSKELLTVSLRYTLPELIKSKDTNTIESVSVKFQNLGPVVVVYGTVGGSSGRVHMNLDKRRFVPVIDLVMDTSTSDEEGSSSIYREVFMFWRMVKDRLVIPLLIGICDKAGLEPPPCLMRLPTELKLKILELLPGVSIGNMACVCTEMRYLASDNDLWKQKCLEEVNNFVVTEAGDSVNWKARFATFWRQKQLAAASDTFWRQNQLGRRNISTGRSGIRFPRIIGDPPFTWFNGDRMHGSIGIHPGQSARGLGRRTWGQLFTPRCNLGGLN | failed |
| MKLSATIAIILLNWNGWRDTVDCVESCRKLDYPNFRIVIVDNGSTDGSEAILRERFPDVELIQTGANLGFAGGNNAGIRHALVRGADYVWLLNNDTVVEPGALGALVRVAESDPRVGMVGSKIVYFDDPWLLWFAGAVIDPERPHRPFHRGLHERDTGQYDRVAETGYVTGCSLLARREMMAEVGMLDDDLFLYFEDADWSARAARAGWKLLYVPDSVVRHKESVSSGGAASPRLVYYTARNRLYFVRRNFPAKLAAALCYDLFEHVLVNVKKGRFPLAVAGCRGIRDFLAGKIGPMPLEHHHHHH | not failed |
| MKLSCVIVSHNMKNYIGRCIDSVRTALADIRSLVGEAEIIVVDRGSTDGTANAARTAYADVTIVDVPFDAGWATAANKGACAATGETLLFVSPEVELLSGGLPRLLEHLETNPACAIAGGAVVSTSGALLHGPARFPGLLGKLAALTGLGSRFPRTMLDWTRYGGRNLDLPLEVDSVSFDYAVVKAAAFCKLGRFDARFHTAFADTDLCRRASRTMLPRPTVAFVPQARARAQDNFVLRDEVQAFDLHGTAVVRGRVRCEMLYVWKNYCILTSLANTTLELVGQACRYAMGLLPVIGCDKTARHSAAVLKETAQAALDTQLGSQYPTTPWLEHHHHHH | failed |
| MKLSLRYVLNQFLSTNLSIFFVLFAIVSMVFFIQLAKLTSSIEISFLDLLKLYGFMLPRILIFTLPISFFISLTLALFRLSKENESIVLFTLGFSPMILAKFFLKIASLISAFMLVVALVMIPIVFELQDNFVNYKSTQVKFNYKTGEFGQKFLDWMIFIEKQDSDKYENIIMYRPKHKADDKEQLIIAKEAHVQRKDDSFAFSLNQGKMYNFEQGQSIFSGEFDTLVVNTQFNTDNLQTKKFYEYWNDLNENPQRAREFVIYTTIALFPLASTLFALCFGLVTYRYEKGYVYLGMFGVIAIYFGLLSSFSQPPILACLGIFSLSLFVSAYCFKKMILSRY | failed |
| MKLSNKTQALHDLIAPAVQACDVNLWGIEFIPQGKRSLLRIFIDKPVDETAEPVLNEDGETELGRGIGVQDCVRVTQQVGAILDVHDPISGEYALEVSSPGWDRPFFQLEQMSAYIGQQVALRLISAVENRRKFQAKLLLVDLENEMIQVEVDGKHVLEIDSHNIDKANLIYQD | failed |
| MKLTDRLLKIASLVSDGKKIADIGTDHGYIPVYLLKEGKVPFAVLADVNKGPLDNAHKEVIQNNLLDKVDLRLGSGIEILEIGEVEEVIIAGMGGILISELLEAKKEVAHNVEKLILQPMQAQEELRYYLLNNGYEILEEVLVREDFRIYEIIVA | failed |
| MKLTGQAIDGFLRKPDPKIRCVLVYGPDEGLVRERLEQLARTVVADPKDPFRITDLSGDDLRADPARLADEAAALAFGGGRRLVRLRQMTDQHAPRLKAFVEAPVGEALVLVQGGDLTARSALRKLFEGASAAAALPCYADEGRSLETLVRATLAEARLAAAPEVIDYLVANLGGDRGVSRSELAKLVTYCGKATSVSLDDALACVGDSAQIGLDMLTNAVAEGDSATALRALDRLGQEGMATVALLRGLTRHFTRLHLVAGLIAGGTSVDQALAALKPPVMFKLAPRFRSQVQRWSAERLAQALDLLLDAEIDAKSSGLPERALVERLLLRLARGAKTASRLEHHHHHH | failed |
| MKLVFKWHDAPLSFMEGVFARGDRRLGAALRRAWELGCRFDGWGDRFDEAAWRTAFEETGIDPAFYHRRREPDEVLPWGHLDFGVTREFLLRELELSRQGAATEDLEHHHHHH | failed |
| MKLVWSPETASKAYIDTVKSCENLETPDAAELIAAMAAGWNVKLIVETWSEGDAIASSIGLNVASKHANAKHICIVQNSRSESAYLQAIQESSSPLNFPETIVAEEPGKAMKKLQGVDFLVVDWRNKEFAAAALKNAAFGNRGAVVVCRNGYSSLRRVLRDRKVVRTVTLPVTGGIEIAHVAARNSGKSGNNKRRWITHVDQRSGEEHVFSI | failed |
| MKLYIYDHCPFCVKARMIFGLKNIPVELNVLQNDDEATPTRMIGQKMVPILQKDDSRYLPESMDIVHYVDNLDGKPLLTGKRNPAIEEWLRKVNGYVNQLLLPRFAKSAFDEFSTPAARQYFIRKKEASSGSFDNHLAHSAGLIKKIGDDLRLLDKLIVQPNAVNGELSEDDIHLFPLLRNLTLVAGIHWPTKVADYRDNMAKQTQINLLSSMAI | not failed |
| MKMLNRLDLGVPCLRAGFAGEQAFFLAMDGRLHVQQGDQRRVVALHDGDVLSACAAPGQADAAAWLLSAGEDGRVMRAGAGEPDCVASVPNKWVTALAVAADGALAYASGRTVWLAGGGGEAAALPQERPVQALRFSHGGRWLAVAGYDGLALYDRQAGGEPQRLDWKGMPTRVAFSPDDRFVLVATRDAVLHGWRLDTLRHFRMVGYPRAVGSWSWLAGGQWLATDGSAGAVLWPFEGEEGPIGSTPLALGERPDGEVSAVACHPARPWVAVGYADGLMVLESTDGALRRILGQAGRDRVACLAWDRAGARLAYGTPSGACGVIQADTGEEGLEHHHHHH | failed |
| MKMNNTKEYSIRTPSLGNLPPGTTGTCCPPPLVFPLLPLSPPPSPPPSPSSPPRLPPPFPALFPPEPPLPPRFELPPPLFPPPPLPRLPPPLLPPPEEPPREPPPPPPPPEEPPPPASCLRTKSPENGIVSTVK | failed |
| MKMYEVKEFSSGKRKLEDYKSIIGEEEVSKIQEKAEKLKGRSFVHVNSTSFGGGVAEILHSLVPLLRSIGIEARWFVIEGPTEFFNVTKTFHNALQGNESLKLTEEMKELYLNVNRENSKFIDLSSFDYVLVHDPQPAALIEFYEKKSPWLWRCHIDLSSPNREFWEFLRRFVEKYDRYIFHLPEYVQPELDRNKAVIMPPSIDPLSEKNVELKQTEILRILERFDVDPEKPIITQVSRFDPWKGIFDVIEIYRKVKEKIPGVQLLLVGVMAHDDPEGWIYFEKTLRKIGEDYDVKVLTNLIGVHAREVNAFQRASDVILQMSIREGFGLTVTEAMWKGKPVIGRAVGGIKFQIVDGETGFLVRDANEAVEKVLYLLKHPEVSKEMGAKAKERVRKNFIITKHMERYLDILNSLGGLEHHHHHH | not failed |
| MKNELICYKQMPVWTKDNLPQMFQEKHNTKVGTWGKLTVLKGKLKFYELTENGDVIAEHIFTPESHIPFVEPQAWHRVEALSDDLECTLGFYCKKEDYFSKKYNTTAIHGDVVDAAKIISPCKVLDLGCGQGRNSLYLSLLGYDVTSWDHNENSIAFLNETKEKENLNISTALYDINAANIQENYDFIVSTVVFMFLNRERVPSIIKNMKEHTNVGGYNLIVAAMSTDDVPCPLPFSFTFAENELKEYYKDWEFLEYNENMGELHKTDENGNRIKMKFATMLARKK | not failed |
| MKNIFLTMSLGIGLLFPCKLHAQSQYPFQNTTLSTEERVDDLIKRMTLEEKIDLLSGYNDFYLHPCERLGIPAFKLADGPLGVASWGLFGRATAFPSALSLAASWNKNLAEKTGAMYAQEWRARGIHFLLAPGVNNYRASKGARNFEYFGEDPYLASEMVVPFIKAVQDGGVIATIKHFAANDQEFDRYTVSTEVSERALQEIYLPPFKAAVQKAGVKAVMTGYNLVNGVYCTENKHLIDILKKDWGFKGMLMSDWACTYSAENAANYGLDLEMGSNDWFTRKELLPLVKEGKVTEEVINDKVRRIYGACISMGFFDRPQQDTDIPTFNPQANQMALNTACEGIILLKNEQNTLPIHRPKVIAVIGPTANPAIVSDRIYNVNSIVYGGGGSSKVHPWYVVSALEGIRQEFPEATVLYTEGISNQFKPRLFRNSKFRTKEGKPGLEANYYALSSDTSATLSDKMIQQQAVAAGRTVSVNQSADRTIETDKEESGLILRRTDRTVNYEWWGYPFNESKLGNDYRVCWEGYVDVEKTDSIRFFVDAQGAYRLWIDGTLALDASQSQSFDVRNTAISAKKGDAKHIRLEFCNQRSTPAEIRMGYAYQSDIDFSEAKRLAAKADLVVFCAGLDGSIELEGRDRPFDLPYGQDMLIQELVKVNPKLIVAIHAGGGINMTRWIDQVPAVVHALYPGQEGGHALAHILSGKVNPSAKLPFTIEKRWEDSPACGHYDETRKEKKVYYTEGIFTGYRGYDQKGIEPLFPFGFGLSYTTFDYSGLNIRMTDKKQKQLVVSFTVTNTGQRDGYEVAQLYVRDMQSKEPRPLKELKGFDKVYLKAGESKQIEIGLSEDAFQYFNAKQNRWVFEKGEFEILVGASSKDIRLAEKIKM | failed |
| MKNITKLSTVALSLLLCTACAASNTSTSKTQSHHPKQTKLTDKQKEEPKNKEAADQEMHPQGAVDLTKYKAKPVKDYGKKIDVGDGKKMNIYETGQGKIPIVFIPGQAEISPRYAYKNLIERLSKKYKIYTVEPLGYGLSDIPTKPRTLENITKEIHTGLNKIGVKNFYLAAHSLGGMYSLNYAKNYPEEVRGFIGMDTSTPWMEGEQKTKYDPESAKWAMKLPDVDDKTNEQYLSIAKKINGNKSQRDEDERLGDNLGKLKNVKFPKGMPTKYFLADQSVEGIKLRQADFKGLKNWDQQHIDLSEDPKDASVEIFKGSHNIFQTQYEHMAKAIDGFIQSHQK | failed |
| MKNKIKFATIIHPDVSFFNKQEVGEGTIIYPGLIVVGRFKLGKHVILKQKCSLGNNIEIGDYSFISFNSNIDSNVMVKEGSYIEANTTILANSNIDKNTYIKEGSILYLEHHHHHH | failed |
| MKNKTIISKQNLVLIVIMVGATLTDQLSKIWITSNLQLGESIEIIPSFFKITYAQNTGAAWSILEGQMTFFYVITLVALILLGWYFYRLKDYQIIQKIGVALMVSGTLGNFIDRLLFQYVRDSLDFHILGYNFPIFNVADVLLICGVLFIIIDEVLKSFGVSYKKM | failed |
